From the nanobody polyreactivity screen of Harvey et al. (2022)

Experiment: yeast display, Sf9 membrane polyspecificity reagent, FACS + sequencing; frameworks hold sequencing errors
In short: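 Galactose-induced (36–48 hours) yeast carrying a synthetic nanobody display library were exposed to 10% biotinylated, detergent-solubilized Sf9 membrane reagent at 4 °C for 1 hour. FACS followed streptavidin microbead enrichment, using low and high (top ~1%) gates for expression (anti-HA) and reagent binding (streptavidin). Colony PCR, MiSeq 2 × 250 sequencing and CDR-length filtering followed. Labels for polyreactivity reflect the gate of origin.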

Sequence | polyreactivity (PSR sort gate)
QVQLVESGGGLVQAGGSLRLSCAASGFTFWYYAMGWYRQAPGKERELVAAITYNGDRTYYADSVKGRFTISRDNAKNTVYLQMNSLKREDTAVYYCAVYLGIRSGTANDYWGQGTQVTVSS | high polyreactivity
QVQLVESGGGLVQAGGSLRLSCAASGRTFDHYAMGWYRQAPGKERELVAAITSGGSTYYADSVKGRFTISRDNAKNTVYLQMNSLKPEDTAVYYCNKDSSFWGCYIAQVNERDYWGQGTQVTVSS | low polyreactivity
QVQREESVGGLVQAGVSLRLSCAASGLTLAPYAMGAYRQAPGKERELVAAITFSGGSTYYADSVKGRFTISRDNAKNTVYLQMNSLKPEDTAVYYCARDTWAYKYVYPYYSWGQGTQVTVSS | low polyreactivity
QVQLVESGGGLVQEGGSLRLSCAASGSTFWGYAMGWYRQAPGKERELVATITTGGSTNYADSVKGRFTISRDNAKNTVYLQMNSLKPEDTAVYYCAAERLFRFWYSAYERYDYCGQGTQVTVSS | low polyreactivity
QVQLVESGGGLVQAGGSLRLSCAASGSTFNLYAMGWYRQAPGKERELVAAISGNGDRTYYADSVKGRFTISRDNAKNTVYLQMNSLKPEDTAVYYCAAKYYGWGQGTQVTVSS | high polyreactivity
QVQHVESGGGLVQAGGSLRLSCAASGGTFRWNAMGWYRQAPGQERELVAAITKSGGSTYYADSVKGRFTISRDNAKNTVYLQMNSLKPEDTAVYYCATDYLRRRDYWGQGTQVTVSS | high polyreactivity
QVQHVESGGGLVQAGGSLLLSCAASGSTFARYAMGWYRQPPGKERELVAAISRSGSNTYYADSVKGRFTISRDNAKNTVYLQMNSLKPEDTAVYYCNRTHRQSFSKLDYWGQGTQVTVSS | high polyreactivity
QVQLVESVGGLVQAGGSLRLSCAASGTIFGWYAMGWYRQAPGKEREMVATIDASGRSTFYADTVKGRFTISRDNAKNTVYLQMNSLKPEDTAVYYFNSRYPRQYWGGYDYWGQGTQVTVSS | low polyreactivity
QDQLVDSGGGLVQAGGSLRLSCGASGSTFRKYAMGWYRQAPGQEREFVAAITWSTGTTYYADSVKGRFTISRDNAKNTVYLQMNSLKREDTAVYYCAADSQPPHDLYESIEHESWGLGTQVTVSS | low polyreactivity
QVQLVESGGGLVQAGGSLRLSCAASGRTFYYYAMGWYRPAPGKERELVAAITSRGGSTYYADSVTGRFTISRDNAKNTVYLQMNSLKPEDTAVYYCAAEYWSTYWQSELDYWGQGTQVTVSS | high polyreactivity
QVQLVESGGGLVQAGGSIRLSCAASGGTFKTYVMGWNRQAPVKERELVAAINTSGTSTYYADSVKGRFTISRDNAKIKVYLQMNSLKPEDTAVYYCATRYRYTYYWGQGTQVTVSS | high polyreactivity
QVQLVESGGGLVQAGGSLRLSCAASGRIFDIYAMGWYRQAPGKERELVAGITSVGSTNYADSVKGRFTISRDNAKNTVYLQMNSLKPEDTAVYYCAKDYLKSAAPSPQGLTHYEYWGQGTQVTVSS | low polyreactivity
QVQLVESGGGLVQAGGSLRLSCAASGSTFPKYAMGWYRQAPGKERELVASISVTTGSTYYADSVKGRFTISRDNAKNTVYLQMNSLNPEDTAVYYCAKRTYSRKFRGAYNYWGQGTQVTVSS | high polyreactivity
QVQLVESGGGLVQAGGSLRLSCAAYGRIFSSYAMGWYRQAPGKERELVAAISSSGGRTYYADSVKGRFTISRDNAKNTVYLQMNRLKPEDTAVYYFARVTTGGYEYWGQGSQVTVSS | high polyreactivity
QVQLVESGGGLVQAGGSLRLSCAASGTLSSYAMGWYRQAAGKERELVAALSLSGGSTYADSVKGRFTISRDNAYNTVYLQMNSLKPEDTAVYYCAKDWDVDITWSFSIYNYWGQGTQVTVSS | low polyreactivity
QVQLVESGGGLVQAGGSLRLSCAASGITFYVYTMGWYRQAPGKERELVAAINGSGGSTNYADSVKGRFPISRDNAKNTVYLQMNSLKPDDTAVYYCAADWSLSLYDYWGQGTQVSVSS | low polyreactivity
QVQLVESGGGLVQAGGSLRLSCAASGSIFVGYAMGWYRQAPGKERELVAAIRSGGSTKYADSVKGRFTISRDNAKNTVYLQMNSLKAEDTAVYYCNVEVHPYYWVDNFHRFPVLHNYWGQGTQVTVSS | low polyreactivity
QVQLVESGGGLVQAGGSLRLSCAASGRIFRYYAMGWYRQATGKERELVATITASSGSTYYADSVKGRFTISRDNAKNTVYLQMNSLKPEDSAVYYCAAGFVYRPGSFIRFDYWGQGTQVTVSS | high polyreactivity
HVHLQESGGGLVQAGGSLRLSCAASGSINDETYMAWYRQAPGKERELVATIDSGSTTNYADSVKGRITISRDNAKNTVYLQMNSLKPEDTAVYYCAAADSHIDYFDYWGQGSQVTVSS | low polyreactivity
QVQLVESGGGLVQAGGSLRLSCAASGLIFAEYAMGWYRQAPGKERELVARITSGGSTDYADSVKGRFTISRDNAKNTVYLQMNRLKPEDTAVYYCSARYYSQDKNASTASDFDYWGQGTQVTVSS | low polyreactivity
QVQLVESGGGLVQAGGSLRLTCAASGRTFTLNSMGWYRQAPGKERELVAAIRRGGSTYYADSVKGRFTISRDNAKNTVYLQMNSLKPVDTAVYYCAAYKGSYGGYRMQYSYNYWGQGTQVTVSS | high polyreactivity
QVQLVESGGGLVQAGGSLRLSCAASGRIFVSYAMGWYRQAPGKERELVAAINWNGDRTYYADSVKGRFTISRDNAKNTVYLQMNSLKPEDSAVYYCNTDSILLPYDYWGQGTQVTVSS | low polyreactivity

Sequence | polyreactivity (PSR sort gate)
QVQLVESGGGLVQAGGSLRLSCAASGSTFGKNALGWYRQAPGKERELVAAITRRGGSTNYADSVKGRFTISRDNAKNTVYLQMNSLKPEDTAVYYCNAGYGYGYPKYDYWGQGTQVTVSS | high polyreactivity
QVQLVESGGGLVQAGGSLRLSCAASGRTFFKNAMGWYRQAPGKERELVAAITSSGGTTYYADSVKGRFTISRDNAKNTVYLQMISLKPEDTAVYYCATRKYPIRYGYGYWGQGTQVTVSS | high polyreactivity
QVQLVESGGGLVQAGGRLRISCAASGTIFYSYEMVWYRKAPAKERELVAAITQSGSSTYYADSVKGRFTISRDNAKNTVYLQMNSLKPEDTAVYYCAAVSRRHPTMSDYWGQGTQVTVSS | high polyreactivity
QVQLVESGGGLVQAGGSLRLSCAASGFTFIPYAMGWYRQAPGKERELVASITYSGGRTYYADSVKGRFTISRDNAKNTVYLQMNSLKPEDTAVYYCNARSWGGYYHWGQGTQVTVSS | high polyreactivity
QVQLVESGGGLVQAGGSLRLSCAASGSTFYPYAMGWYRQAPGKERELVAAISISGGITYYADSVKGRFTISRDNAKNTVYLQMNSLKPEDTAVYYCAAEYLAVSGYWYDYWGQGTQVTVSS | high polyreactivity
QVQLVESGGGLVQAGGSLRLSCAASGRIFVPNAMGWYRQAPGKERELVARISRSDGSTYYADSVKGRFTISRDNAKNTVYFPMNSLKPEDTAVYYCAASTTPRWWSFKYYYWGQGTQVTVSS | high polyreactivity
QVQLVESGGGLFQAGGSLRLSCAASGSIFWSYDMGWYRQAPGKERELVATITSGDSTYYADSVKGRFTISRDNAKNTVYLQMNSLKPEDTAVYYCAAGTYYRRTYWHREYDYWGQGTQVTVSS | low polyreactivity
QVQLVESGGGLVQAGGSLRLSCAASGSTFGYYAMGWYIQAPGKERELVAAISWPGGSTYYADSVKGRFTISRDNAKNTVYLQMNSLKPEYTAVYYCAADTPYWQSSKYDYWGQGTQVSVSS | high polyreactivity
QVQLVESGGGLVQAGGSLRLSCAASGSTFYPYAMGWYRQAPGKERELVAAISSGGSTSYADSVKGRFTISRDNAKNTVYLQMNSLKPEDTAVYYCNASSPGAVPVYYYDYWGQGTQVTVSS | low polyreactivity
QVQLVESGGGLVQAVGSLRLSCDASGLTFNSNAMGWYIQAHGKDRELVATISRGGTTNYADSVKGRFTISRDNAKNTVYLQMNSLKPEDTAVYYCNALRGSRYDYWGQGTQVTVSS | high polyreactivity
QVQLVESGGGLVQAGGSLRLSCAASGSTLTYNAMGWYRQAPGKERELVAAIDWDGDTTYYADSVKGRFTISRDNAKNTVYLQMNSLKPEDTAVYYCAAEFYSLGKAIYEYWGQGTQVTVSS | high polyreactivity
QVHLLESGGGLVQAGGSLRLICAASGRILYPYALVWYRQAPGKETELVAAITFRGGNTYYADSVKARFTLSRDYAKNTVYLQMNSMKPEDTAVYFCAARKSPRSQVRGRSYYWGQGSQVTVSS | high polyreactivity
QVQLVESGGGLVQAGGSLRLSCAASGSIFAYYAMGWYRQAPGKERELVAAITWSGGITYYADSVKGRFTISRDNAKNTVYLQMNSLKPEDTAVYYCNADEWPPYEYEYWGQGTQVTVSS | low polyreactivity
QVQLVESGGGLVQAGGSLRLSCAASGSIFPAYAMGWYRQAPGKERELVAAITFSGGRTYYADSVKGRFTISRDNAKNTVYLQMNSLKPEDTAVYYCAAYGAPSGTGAKYGYWGQGTQVTVSS | low polyreactivity
QVQLVESGGGLVQAGGSLRLSCAASGITFLPYAMGWYRPAPGKERELVAAITRGGGSTYADSVKGRFTISRDNAKNTVYLQMNSLKPEDTAVYYCAKRYGRVSWYEDYDYWGQGTQVTVSS | low polyreactivity
QVQLVESGGGLVQAGGSLRLSCAASGFTIRSYVMGWYRQAPGKERELVAAIRRSGGSTYYADSVKGRFTNSRDNAKNTVYLQMNSLKPEDTAVYYCNAPHHRYDWGQGTQVTVSS | high polyreactivity
QVQLVESGGGLVQAGGSLRLSCAASGIIFSAYAMGWYRQPPGKERELVAVIDSDGDGTYYADSVKGRFTISRDNAKNTVYLQMNSLKPEDTAVYYCAADYEYTRVEGWFIGFDEYGYWGQGTQVTVSS | low polyreactivity
QVQLVESGGGLVQARGSLRLSCSASGSIIDIYAMGWYRQAPGKERELVAAITGGGSTNYADSVKGRFTISRDNAKNTVYLQMNILKPEDTAVYYCAAGTYLNGGGEYWGQGTQVTVSS | low polyreactivity
QVQLVESGGGLVQAGGSLRLSCAASGRTFVTYTMGWYRPAPGKERELVAAISRDGRTYYADSVKGRFTISRDNAKNTVYLQMNSLKPEDTAVYYCATRYKSPSFDYWGQGTQVTVSS | high polyreactivity
QLQLVESGGGLVQAGGSLRLSCAASGSTFDVNAMGWYRQAPGKERELVAAISYSGGSTYYADSVKGRFTISRDNAKNTVYLQMNSLTPEDTAVYYCNAVFSRYSRLELGYWGQGTQVTVSS | high polyreactivity
QVQLVESGGGLVQAGGSLRLSCAASGFTFVINDMGWYRQAPVKERELVADITSGGDTYYADSVKGRFTISRVNAKNTVYLQMYRLKPEDTAVYYCAADIYPDWIYLLYGYWGQGTQVNVSS | low polyreactivity
